From patent US20200362031A1 (BIO TECHNE, published 2020) come the findings set out here.

In assay [1] the target is VISTA(1-195)-COMP-His (human). The assay can be described thus: SPR (Biacore T200); VISTA-COMP against monomeric VISTA, VSIG3-Fc analyte. On the procedure:
(§1) VISTA or VISTA-COMP (each prepared as described in Example 4) was covalently immobilized to the surface of a CM5 chip (GE Healthcare, US) using an anti-poly His antibody. Dilutions of VSIG3 Fc-fusion were then flowed over the surface at concentration ranging between 0.2 nM and 20 μM and the double reference subtracted data fit to a 1:1 Langmuir binding model with Biacore T200 Evaluation Software version 3.1
This increase is largely due to an […].

The target of assay [2] is T1, Recombinant human VISTA Fc Chimera (human).
T1 construct: also called rhVISTA; VISTA/IgG Fc fusion protein
The assay can be described thus: functional ELISA; rhVISTA coated 2 µg/mL, biotinylated rhVSIG3, streptavidin-HRP. As to the method:
Recombinant human VSIG3 Fc Chimera (“rhVSIG3”—encoded by SEQ ID NO:3; see Table 1) specifically binds to a recombinant human VISTA Fc Chimera (“rhVISTA”—encoded by SEQ ID NO:6; see Table 1) on a functional ELISA binding assay. rhVISTA was coated on the wells of a ELISA microtiter plate at 2 μg/ml in a 100 μL volume. Following blocking of the wells with 1% BSA, varying amounts of rhVSIG3 labeled with biotin was added. Biotin label associated with the plate due to the rhVSIG3-rhVISTA interaction was detected with streptavidin-HRP. […] The non-specific binding is subtracted and in all cases was less than 5% of the total signal.
Background: An ELISA detects its analyte on a solid surface through an enzyme-linked reagent.

Assay [3] has as its target VISTA(1-195)-COMP-His (human). Kind of assay: SPR (Biacore T200); VISTA-COMP captured by anti-poly His antibody on CM5 chip, VSIG3-Fc analyte, 1:1 Langmuir fit. On the procedure:
as §1
(In general: SPR reads the build-up and loss of mass on a sensor chip optically.)

Assay [4] addresses monomeric VISTA (human). The assay can be described thus: SPR (Biacore T200); monomeric VISTA captured by anti-poly His antibody on CM5 chip, VSIG3-Fc analyte, 1:1 Langmuir fit. As to the method: as §1
In assay [5] the target is VISTA(1-195)-COMP-His (human). Kind of assay: SPR (Biacore): VISTA-COMP captured by anti-poly-His antibody on a CM5 chip, VSIG3-Fc analyte 0.2 to 500 nM, 1:1 fit. As to the method: (§2) FIG. 9A-FIG. 9D show schematics and quantification of the kinetics and affinity of the VISTA-VSIG3 interaction by surface plasmon resonance (Biacore) using monomeric VISTA and multimeric VISTA-COMP. FIG. 9A and FIG. 9C show schematics of the Biacore experiment, where VISTA (FIG. 9A) or VISTA-COMP (FIG. 9C) is captured on the surface of a CM5 chip (GE Healthcare) using an anti-poly His antibody. The analyte, VSIG3-Fc, is flowed over the captured VISTA at concentration ranging between 0.2 nM and 20 μM. FIG. 9B and FIG. 9D show resulting sensorgrams and kinetic fits using a 1:1 model for the monomeric VISTA-VSIG3-Fc interaction (FIG. 9B) and the multimeric VISTA-COMP-VSIG3-Fc interaction (FIG. 9D). For captured monomeric VISTA, the VSIG3-Fc analyte was tested in the range of 0.247 μM to 20 μM. For captured multimeric VISTA-COMP, the VSIG3-Fc analyte was tested in the range of 0.2 nM to 500 nM.
as §1

For assay [6], the target named is monomeric VISTA (human). The assay can be described thus: SPR (Biacore): monomeric VISTA captured by anti-poly-His antibody on a CM5 chip, VSIG3-Fc analyte 0.247 to 20 µM, 1:1 fit. On the procedure:
as §2, §1

For assay [7], the target named is T1, Recombinant human VISTA Fc Chimera. Kind of assay: AVEXIS screen.

Sequence of VISTA(1-195)-COMP-His (human) (chain, as listed by the source): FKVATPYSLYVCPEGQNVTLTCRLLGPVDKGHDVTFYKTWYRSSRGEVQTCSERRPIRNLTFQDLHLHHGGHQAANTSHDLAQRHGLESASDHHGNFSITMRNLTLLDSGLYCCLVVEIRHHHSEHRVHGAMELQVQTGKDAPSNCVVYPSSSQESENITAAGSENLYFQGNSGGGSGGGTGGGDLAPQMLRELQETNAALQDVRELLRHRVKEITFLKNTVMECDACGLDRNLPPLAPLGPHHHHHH
Sequence of monomeric VISTA (human) (Q9H7M9 33-194): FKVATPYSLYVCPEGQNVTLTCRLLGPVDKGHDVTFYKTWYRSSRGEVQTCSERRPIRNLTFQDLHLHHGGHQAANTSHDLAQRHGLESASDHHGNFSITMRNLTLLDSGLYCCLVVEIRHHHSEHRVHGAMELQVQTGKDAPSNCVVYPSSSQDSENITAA

B1: Recombinant human VSIG3 Fc Chimera (Fc fusion)
chain: LEVSESPGSIQVARGQTAVLPCTFTTSAALINLNVIWMVTPLSNANQPEQVILYQGGQMFDGAPRFHGRVGFTGTMPATNVSIFINNTQLSDTGTYQCLVNNLPDIGGRNIGVTGLTVLVPPSAPHCQIQGSQDIGSDVILLCSSEEGIPRPTYLWEKLDNTLKLPPTATQDQVQGTVTIRNISALSSGLYQCVASNAIGTSTCLLDLQVISPQPRNIGLIAGIEGRMDPKSCDKTHTCPPCPAPEAEGAPSVFLFPPKPKDTLMISRTPEVTCVVVDVSHEDPEVKFNWYVDGVEVHNAKTKPREEQYNSTYRVVSVLTVLHQDWLNGKEYKCKVSNKALPAPIEKTISKAKGQPREPQVYTLPPSRDELTKNQVSLTCLVKGFYPSDIAVEWESNGQPENNYKATPPVLDSDGSFFLYSKLTVDKSRWQQGNVFSCSVMHEALHNHYTQKSLSLSPGK
notes: also called rhVSIG3; rhVSIG-3
For the molecule B1, in the assay with VISTA(1-195)-COMP-His [1], the “fold higher affinity than with monomeric VISTA” value was ~150 fold. In addition, the EC50 in assay [2] was ~0.25 µg/mL. Moreover, the Kd is ~17 nM in the assay with VISTA(1-195)-COMP-His [3], ~2500 nM with monomeric VISTA [4], 17 nM in the assay with VISTA(1-195)-COMP-His [5] and 2520 nM with monomeric VISTA [6].

B2: VSIG3(1-245)-COMP-AlkPhos-Flag/His (other)
chain: LEVSESPGSIQVARGQPAVLPCTFTTSAALINLNVIWMVTPLSNANQPEQVILYQGGQMFDGAPRFHGRVGFTGTMPATNVSIFINNTQLSDTGTYQCLVNNLPDIGGRNIGVTGLTVLVPPSAPHCQIQGSQDIGSDVILLCSSEEGIPRPTYLWEKLDNTLKLPPTATQDQVQGTVTIRNISALSSGLYQCVASNAIGTSTCLLDLQVISPQPRNIGLIAGSENLYFQGNSGGGSGGGTGGGDLAPQMLRELQETNAALQDVRELLRHRVKEITFLKNTVMECDACGLDRNLPPLAPLGPIIPVEEENPDFWNREAAEALGAAKKLQPAQTAAKNLIIFLGDGMGVSTVTAARILKGQKKDKLGPEIPLAMDRFPYVALSKTYNVDKHVPDSGATATAYLCGVKGNFQTIGLSAAARFNQCNTTRGNEVISVMNRAKKAGKSVGVVTTTRVQHASPAGTYAHTVNRNWYSDADVPASARQEGCQDIATQLISNMDIDVILGGGRKYMFRMGTPDPEYPDDYSQGGTRLDGKNLVQEWLAKRQGARYVWNRTELMQASLDPSVTHLMGLFEPGDMKYEIHRDSTLDPSLMEMTEAALRLLSRNPRGFFLFVEGGRIDHGHHESRAYRALTETIMFDDAIERAGQLTSEEDTLSLVTADHSHVFSFGGYPLRGSSIFGLAPGKARDRKAYTVLLYGNGPGYVLKDGARPDVTESESGSPEYRQQSAVPLDEETHAGEDVAVFARGPQAHLVHGVQEQTFIAHVMAFAACLEPYTACDLAPPAGTTDDYKDDDDKHHHHHH
notes: also called penta-VSIG3
Consider B2, for which the binding result in assay [7] is given as “no binding”.

A word on the EC50: it is the concentration at which the effect is half-maximal. For orientation: Kd means the constant that tells how readily two partners part at equilibrium. A high value points to lower affinity.
